± gives the standard deviation.
Test: protein stability index of a GFP-peptide fusion (GPS, HEK-293T) (PSI 1-6); higher = more stable
Conditions: c terminus: a fixed tail appended
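Further: 24-mer peptide tiles fused after GFP, lentivirally expressed, FACS-sorted into six equal bins by GFP/DsRed ratio, decoded by Illumina sequencing, PSI is the read-weighted mean bin number.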

| Sequence | protein stability index (treatment: DMSO) | protein stability index (treatment: MLN4924 1 uM, 8 h) |
| --- | --- | --- |
| ENQRENLEQPFLSVFKKGRRRVPV [PLEKHN1] | 3.31 ± 0.4 | 3.46 ± 0.18 |
| RSRDSNSGPEEPLLEEEEKQWGPL [RTN2] | 5.05 ± 0.53 | 5.45 ± 0.53 |
| SPDVLQMLKIHRSDPQLIVQLRFC [TRADD] | 2.73 ± 0.58 | 2.56 ± 0.6 |
| KFSGLYILSFTVIMVGFILYCSTP [SLC35F2] | 3.22 ± 0.4 | 3.17 ± 0.24 |
| MVPISKQPKEKIQAIIESCSRQFP [NOL4L] | 3.34 ± 0.11 | 3.38 ± 0.47 |
| RLEQEIATYRSLLEGQDAKMIGFP [KRT13] | 3.06 ± 0.1 | 3.36 ± 0.34 |
| EINKRTAAENEFVLLKKDVDAAYA [KRT71] | 3.76 ± 0.26 | 4.24 ± 0.24 |
| DGKLSFEEFKAYFADGVLSGEELH [NECAB1] | 4.23 ± 0.28 | 4.14 ± 0.37 |
| RAPACSPEAAAAQLRATAGSLILP [FCHO1] | 3.12 ± 0.38 | 3.15 ± 0.34 |
| ALHSLTQAGDYSMRVDLRAGDEAV [TNXB] | 3.39 ± 0.57 | 3.6 ± 0.49 |
| GNEKITMQNLNDRLASYLDKVRAL [KRT15] | 2.6 ± 0.73 | 2.78 ± 0.5 |
| TNSTPLRAACFDGHLEVVRYLVGE [FEM1A] | 2.32 ± 0.18 | 2.4 ± 0.31 |
| EGNHPSARKLTAQRRASTVSSVTQ [NET1] | 4.39 ± 0.25 | 4.69 ± 0.18 |
| ERTSPGAIHYCASTSEESWTDSEV [SPDEF] | 5.25 ± 0.058 | 4.97 ± 0.18 |
| DMCMKVPDDPEHLAARRQWRDECL [CRYL1] | 4.47 ± 0.22 | 4.56 ± 0.2 |
| HTQVLPDVRLLPRRLPLAFRDATS [DYRK1B] | 2.84 ± 0.32 | 3.04 ± 0.22 |
| PPNTRVLRVLPNLPCVVQEGAIVM [PYCR3] | 2.22 ± 0.22 | 2.39 ± 0.25 |
| MAAGGRMEDGSLDITQSIEDDPLL [TMEM192] | 4.7 ± 0.29 | 4.87 ± 0.16 |
| VGLVTNQLSHIKAKIRAKIPGTGA [RTN2] | 2.79 ± 0.16 | 2.9 ± 0.11 |
| DDLTVVDAASLRRQIIKLNRRLQL [MFF] | 2.49 ± 0.27 | 2.9 ± 0.65 |
| GQCVQAFETHESDINSVRYYPSGD [GNB5] | 4.52 ± 0.12 | 4.46 ± 0.093 |
| QKVASNHSPFSSESRALSTSSNLG [TBX5] | 4.19 ± 0.17 | 4.29 ± 0.085 |
| YAPPPTPAPATQMPSTPGFVGYNP [SMARCE1] | 3.01 ± 0.36 | 3.72 ± 0.32 |

| Sequence | protein stability index (treatment: DMSO) | protein stability index (treatment: MLN4924 1 uM, 8 h) |
| --- | --- | --- |
| FSGCLNCSKVSELTERLKVLEAKM [EMID1] | 2.83 ± 0.29 | 2.926 ± 0.029 |
| RVTTEQYQKAAEEVEAKFKRYESH [CHCHD3] | 4.66 ± 0.14 | 4.7 ± 0.12 |
| DKNVQVVELPIVDSLHPRPPYLPL [FUT8] | 3.2 ± 0.29 | 3.35 ± 0.28 |
| PRGRAHLLPNPYQQDFLGLPEELR [C22orf15] | 3.92 ± 0.24 | 4.31 ± 0.11 |
| IGMPFNQLGTLAGSKYYNVEAMYC [SMG5] | 2.36 ± 0.51 | 2.27 ± 0.3 |
| CDDYFFIAHRGERRGIGGIFFDDL [CPOX] | 2.16 ± 0.31 | 1.96 ± 0.45 |
| LTCALMLLNTDLHGHNIGKKMSCQ [PSD2] | 2.54 ± 0.49 | 2.41 ± 0.74 |
| LFRCIQNMPETLPNNSCYSAGIAK [TNFSF13B] | 2.63 ± 0.3 | 2.68 ± 0.16 |
| QPRIHLVRAAQLCSQHWGGMASFR [TBX6] | 2.38 ± 0.56 | 2.24 ± 0.11 |
| CRADHGLLLERAAAGSPRSPGPLP [ISL2] | 3.47 ± 0.46 | 3.1 ± 0.43 |
| SLGYVRSQFLKLKTSVEKANAQIQ [CD207] | 2.63 ± 0.53 | 2.81 ± 0.27 |
| MSPYLVPDTQALCHHLPVIRQLAT [SMG5] | 2.3 ± 0.28 | 2.52 ± 0.22 |
| DEKYSIEPSWECKFDHIEVRDGPF [NETO1] | 3.78 ± 0.35 | 3.9 ± 0.17 |
| GEKEEEDKDDEEKPKIEDVGSDEE [HSP90AB1] | 5.6 ± 0.24 | 5.77 ± 0.12 |
| DHEDNDKMNDSEGMDPERLKAFNM [NOL4L] | 5.46 ± 0.12 | 5.34 ± 0.34 |
| VCALCPVLGAHRGHPVGLALEAAV [TRIM14] | 2.57 ± 0.34 | 2.37 ± 0.6 |
| LGRFSLTPAEGDTEEDDGFVDILE [CDC25B] | 4.66 ± 0.74 | 5.06 ± 0.1 |
| GLASWPLARGIHVAGILSLLLGTA [POMT2] | 2.52 ± 0.52 | 2.18 ± 0.49 |
| PGGETEALTRLERHLERKAWVANF [CRY1] | 3.04 ± 0.36 | 3.07 ± 0.39 |
| TGKAPSPRAAHACATVGNRGFVFG [KLHDC2] | 2.38 ± 0.11 | 2.21 ± 0.19 |
| LQQLRARLQGLEADCVRGPDGVCL [PBXIP1] | 2.7 ± 0.29 | 3.01 ± 0.35 |
| EERAKAKHLARQLEEKDRVLKKQD [CHCHD3] | 5.51 ± 0.14 | 5.42 ± 0.16 |
